Measurements reported in patent publication US8034783B2, “Prodomain modulators of ADAM 10” (Biozyme, Inc., priority 2006, dated 2011).

How the values were obtained:
[1] = tested on: MMP 1, 2, 3, 9, 13, 14; assay: Inhibition assays with MMPs; format: biochemical
Experimental: Inhibition assays with MMPs. The fluorescent substrate Dabcyl-GPLGMRGC (Fluorescein)-NH2 (SEQ ID NO 18) (10 μM) in assay buffer containing 50 mM Tris, pH 7.5, 150 mM NaCl, 2 mM CaCl2, 5 μM ZnSO4, and 0.01% Brij-35 was used to monitor enzyme activities. MMPs 1, 2, 3, 9, 13, and 14 (0.1-20 nM) were incubated with substrate in the absence or presence of prodomain (3-30 μM). Fluorescence intensities were measured every 3-5 minutes at an emission wavelength of 530 nm (excitation 485 nm).
(§1) Calculation of inhibition constants. The amount of activity was calculated by subtracting the ADAM 10 prodomain control from the ADAM 10 prodomain with enzyme. All inhibition assays were performed at room temperature and the data fit to the following equation using Sigma Plot software:
(§2) [formula] where If is fractional inhibition, I is the inhibitor concentration and Ki is the inhibition constant.

[2] = target: T1, ADAM 8 (mouse) catalytic domain (Mus musculus, UniProt Q05910); assay: Inhibition assay with ADAM 8 catalytic domain; format: biochemical; conditions: fluorescamine assay; read-out: inhibition constant, ADAM 8 (mouse)
T1 construct: The ADAM 8 catalytic domain was expressed and purified from E. coli as described (22); made in house; host or cells: E. coli
T1 sequence (Q05910 196-395 limits assumed): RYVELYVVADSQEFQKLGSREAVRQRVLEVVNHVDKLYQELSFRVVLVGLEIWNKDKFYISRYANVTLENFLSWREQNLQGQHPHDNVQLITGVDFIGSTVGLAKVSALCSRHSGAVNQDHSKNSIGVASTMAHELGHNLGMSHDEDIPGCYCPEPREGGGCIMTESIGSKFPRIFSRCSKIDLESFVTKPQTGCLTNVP
Experimental: Inhibition assays with ADAM 8. The ADAM 8 catalytic domain was expressed and purified from E. coli as described (22). A substrate based on the L-selectin cleavage site, Dnp-INorIeuQKLDKSFSMIKE-NH2 (SEQ ID NO 20), was used to monitor enzyme activity with a fluorescamine assay. From a concentrated 50 mM solution in DMSO, the substrate was diluted 1:500 in 25 mM HEPES, pH 8.0, 0.0006% Brij-35. To 100 μl of diluted substrate was added either 5 μl of buffer (Tris, pH 8.0, 150 mM KCl) or 5 μl of ADAM10 prodomain (1-10 μM). Zero time points were taken by diluting 12.5 μl of the reaction mixture into 100 μl of fluorescamine buffer (50 mM HEPES, pH 8.0, 0.2 M NaCl, 0.01 M CaCl2, 0.01% Brij-35) in a 96-well black-coated plate. Before measuring fluorescence, 3 μl of a 1% solution of fluorescamine in DMSO was added to each well. The plate was allowed to incubate for 10 min in the dark before measuring fluorescence (excitation wavelength at 390 nm, emission wavelength at 485 nm). For assays with TACE and ADAM8 prodomains, a fluorescent substrate was used to monitor activity at concentrations of prodomains ranging from 1-4.7 μM.
Calculation of inhibition constants. The amount of activity was calculated by subtracting the ADAM 10 prodomain control from the ADAM 10 prodomain with enzyme. […]

[3] = tested on: CD23 shedding in U937 cells; assay: CD23 release from U937 cells, soluble CD23 ELISA; format: cell-based; conditions: 150-600 nM, IL-4, 24 hr, FIG. 2B
Experimental: ADAM 10 prodomains were also tested in assays to determine if ADAM 10 protein functions as a CD23 sheddase. Cells (100,000 per well) were seeded in round-bottomed 96-well plates (Sarstedt, Newton, N.C.) in 0.2 ml of media supplemented with IL-4 with inhibitors (A10 23-215 150-600 nM, GM6001 10-50 μM, TAPI-2 10-50 μM, or TIMPs 250 nM) or vehicle controls (A10 23-215 buffer: 25 mM NaH2PO4 pH 7.0, 125 mM KCl, 75 mM NaCl 20% glycerol, PBS, or dimethyl sulfoxide). Cells were cultured for 24 hr. The conditioned medium was harvested by centrifugation (2000×g, 15 min). The conditioned medium was assayed by ELISA for soluble CD23 according to the manufacturers' instructions (BD Biosciences, Invitrogen).

[4] = target: T2, human ADAM 9 catalytic/disintegrin domains (Homo sapiens, UniProt Q13443); assay: Inhibition assay with ADAM 9; format: biochemical; conditions: read-out: inhibition constant, ADAM 9 (human)
T2 construct: human ADAM 9 catalytic/disintegrin domains activity; purchased R & D Systems (Minneapolis, Minn., USA)
T2 sequence (Q13443 206-697 limits assumed): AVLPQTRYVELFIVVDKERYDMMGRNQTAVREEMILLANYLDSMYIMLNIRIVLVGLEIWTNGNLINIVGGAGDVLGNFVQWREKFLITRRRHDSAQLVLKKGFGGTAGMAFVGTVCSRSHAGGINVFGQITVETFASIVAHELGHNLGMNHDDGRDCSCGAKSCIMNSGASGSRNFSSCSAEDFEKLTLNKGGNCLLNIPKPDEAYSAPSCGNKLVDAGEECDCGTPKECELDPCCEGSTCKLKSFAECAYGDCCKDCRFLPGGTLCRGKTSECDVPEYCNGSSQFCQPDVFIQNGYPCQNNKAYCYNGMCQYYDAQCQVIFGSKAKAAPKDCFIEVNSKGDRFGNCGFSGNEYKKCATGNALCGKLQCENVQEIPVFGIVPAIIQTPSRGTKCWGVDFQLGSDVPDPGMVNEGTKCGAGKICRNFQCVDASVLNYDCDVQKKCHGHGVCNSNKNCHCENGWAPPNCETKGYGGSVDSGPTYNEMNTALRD
Experimental: Inhibition assays with ADAM 9. The fluorescent substrate, Dabcyl-PchaGC(Me)HAK(Fam)-NH2 (SEQ ID NO 19) (10 μM), in a buffer containing 25 mM Tris, pH 8.0, 0.0006% Brij-35, was used to measure human ADAM 9 catalytic/disintegrin domains activity. The ADAM 9 was provided as a 0.1 μg/μl stock solution, from which 3 μl was added to start the reaction in the absence or presence of ADAM10 prodomain (78-5000 nM). Fluorescence intensities were measured every 10-20 minutes at excitation and emission wavelengths of 485 and 530 nm respectively.
as §1, §2

Ki ([1]; read-out: inhibition constant, MMP 1, 2, 3, 9, 13, 14): > 2000 nM
Ki [2]: > 10000 nM
Ki [4]: > 1000 nM
B1: C173S ProADAM 10 23-213 (C-terminal His tag): mouse ADAM 10 prodomain 23-213 with cysteine 173 mutated to serine, C-terminal His tag (protein, UniProt O35598 23-213, looked up, variant C173S)
chain: NPLNKYIRHYEGLSYNVDSLHQKHQRAKRAVSHEDQFLLLDFHAHGRQFNLRMKRDTSLFSDEFKVETSNKVLDYDTSHIYTGHIYGEEGSFSHGSVIDGRFEGFIKTRGGTFYIEPAERYIKDRILPFHSVIYHEDDINYPHKYGPQGGSADHSVFERMRKYQMTGVEEGARAHPEKHAASSGPELLRKK
modifications: pro-form C-terminal His tag
notes: mouse ADAM 10 prodomain 23-213 with cysteine 173 mutated to serine, C-terminal His tag
inhibition of matrix metalloproteinases 1, 2, 3, 9, 13 and 14 ([1]; 3 μM prodomain): not inhibited
inhibition of CD23 shedding, U937 cells [3]: about 30%
